Experimental data: patent publication US6635751B1, “Isolated nucleic acids encoding activated and suppressive forms of ATF6” (HSP Research Institute, Inc., priority 1998, dated 2003)
Numbering of substitutions follows the chain as printed.

Tests used:
GRP78 promoter = experiment: Co-transfection of pcDNA3.1 effector plasmid (full-length ATF6 or CREB-RP) with GRP78 promoter luciferase reporter in HeLa cells; type: cell-based, human
Method: 100 ng of an effector plasmid carrying a full-length ATF6 cDNA or plasmid vector alone was cotransfected into HeLa cells with 1 μg of a reporter plasmid containing luciferase gene fused with intact or mutant GRP promoters. The mutant promoter constructs used correspond to those of FIG. 6. Closed bars and open bars indicated cells treated with or without 2 μg/ml tunicamycin (in the figure, referred to as “TM”) for 16 hours, respectively. Experiments were repeated four times.
An effector plasmid carrying a full-length CREB-RP gene was cotransfected into HeLa cells harboring a reporter plasmid in the same manner as in FIG. 14. Experiments were repeated four times. In the figure, TM indicates tunicamycin.
An entire cDNA was inserted into the HindIII-XhoI sites or BamHI-EcoRI sites immediately downstream of the CMV promoter of pcDNA3.1(+) vector (manufactured by Invitrogen) to construct an effector plasmid for expressing ATF6 or CREB-RP, respectively.
In order to examine whether or not ATF6 is involved in the transcriptional regulation of the GRP gene in mammalian cells, HeLa cells were co-transfected with an effector plasmid carrying a full-length ATF6 cDNA and a reporter plasmid resulting from ligation of the firefly luciferase gene to downstream of the intact GRP promoter or a mutant GRP promoter, and GRP promoter activity was evaluated from the luciferase activity.
Therefore, with these findings in mind, a test was carried out to determine whether or not CREB-RP overexpression affects the activity of the GRP promoter.

human GRP78 promoter = experiment: Overexpression of pCGN-ATF6 deletion mutants with reporter pGL3-G78(-132) in HeLa cells, ERSE-mediated transcription; type: cell-based; details: for transcription of the luciferase gene from the GRP78 promoter having ERSE: absence of endoplasmic reticulum stress (without TM)
Method: HeLa cells in a 24-well plate were transiently transfected with a reporter plasmid pGL-G78(−132) capable of expressing firefly luciferase gene under the control of human GRP78 promoter, together with pCGN vector alone (Vec) or each of ATF6 expression plasmids. Transfected cells were treated with (closed bars) or without (open bars) 2 μg/ml tunicamycin (TM) for 16 hours prior to measuring luciferase activity. The relative activities are indicated as the mean±standard deviations (bars) from four independent experiments (triplicate determinations).
Using HeLa cells co-transfected with the reporter plasmid pGL3-G78(−132) [see Example 1 (FIG. 6, line 2)] resulting from ligation of the firefly luciferase gene to downstream of the human GRP78 promoter ([−132 to +7], numbered on the basis of the translation initiation point taken as +1) and the expression plasmid for the ATF6 C-terminal deletion mutant of Example 10, the effects of each of the overexpressed C-terminal deletion mutants of ATF6 on ERSE-mediated transcriptional activation were evaluated.
Next, in the same manner as in Example 13, the effect of the overexpression of each ATF6 transcription-activating domain deletion mutant on ERSE-mediated transcriptional activation was evaluated by co-transfection with the reporter plasmid pGL3-G78(−132).

[1] = presence of TM (2 μg/ml, 16 hours)

B1: ATF6: full-length ATF6, 670 amino acids (SEQ ID NO: 32), bZIP transcription factor expressed from pcDNA3.1(+) effector plasmid (protein, listed as Homo sapiens)
chain: MGEPAGVAGTMESPFSPGLFHRLDEDWDSALFAELGYFTDTDELQLEAANETYENNFDNLDFDLDLMPWESDIWDINNQICTVKDIKAEPQPLSPASSSYSVSSPRSVDSYSSTQHVPEELDLSSSSQMSPLSLYGENSNSLSSPEPLKEDKPVTGSRNKTENGLTPKKKIQVNSKPSIQPKPLLLPAAPKTQTNSSVPAKTIIIQTVPTLMPLAKQQPIISLQPAPTKGQTVLLSQPTVVQLQAPGVLPSAQPVLAVAGGVTQLPNHVVNVVPAPSANSPVNGKLSVTKPVLQSTMRNVGSDIAVLRRQQRMIKNRESACQSRKKKKEYMLGLEARLKAALSENEQLKKENGTLKRQLDEVVSENQRLKVPSPKRRVVCVMIVLAFIILNYGPMSMLEQDSRRMNPSVSPANQRRHLLGFSAKEAQDTSDGIIQKNSYRYDHSVSNDKALMVLTEEPLLYIPPPPCQPLINTTESLRLNHELRGWVHRHEVERTKSRRMTNNQQKTRILQGALEQGSNSQLMAVQYTETTSSISRNSGSELQVYYASPRSYQDFFEAIRRRGDTFYVVSFRRDHLLLPATTHNKTTRPKMSIVLPAININENVINGQDYEVMMQIDCQVMDTRILHIKSSSVPPYLRDQQRNQTNTFFGSPPAATEATHVVSTIPESLQ
In the case of B1, the “increase of luciferase expression from GRP78 promoter having intact ERSE sequences over control vector” value (GRP78 promoter; absence of TM, 100 ng effector plasmid) is reported as 5 fold, the “effect on expression from mutant GRP78 promoter lacking all three ERSE sequences” value (GRP78 promoter) is reported as “not affected” and the “effect on reporter expression from intact GRP78 promoter” value (shortened to “effect on reporter expression”) (GRP78 promoter; [1]) is reported as “further increased”.

B2: ATF(670): full-length ATF6 with HA epitope at N-terminus, expressed from pCGN-ATF6(670) (protein, UniProt P18850 1-670, looked up)
chain: B1 chain with P145A, S157P
modifications: full-length N-terminal HA tag
For B2, the “transcription of the luciferase gene from the GRP78 promoter having ERSE” value (human GRP78 promoter) was “constitutively activated”.

B3: CREB-RP: full-length CREB-RP (SEQ ID NO: 34) expressed from pcDNA3.1(+) effector plasmid (protein, listed as Homo sapiens)
chain: MAELMLLSEIADPTRFFTDNLLSPEDWDSTLYSGLDEVAEEQTQLFRCPEQDVPFDGSSLDVGMDVSPSEPPWELLPIFPDLQVKSEPSSPCSSSSLSSESSRLSTEPSSEALGVGEVLHVKTESLAPPLCLLGDDPTSSFETVQINVIPTSDDSSDVQTKIEPVSPCSSVNSEASLLSADSSSQAFIGEEVLEVKTESLSPSGCLLWDVPAPSLGAVQISMGPSLDGSSGKALPTRKPPLQPKPVVLTTVPMPSRAVPPSTTVLLQSLVQPPPVSPVVLIQGAIRVQPEGPAPSLPRPERKSIVPAPMPGNSCPPEVDAKLLKRQQRMIKNRESACQSRRKKKEYLQGLEARLQAVLADNQQLRRENAALRRRLEALLAENSELKLGSGNRKVVCIMVFLLFIAFNFGPVSISEPPSAPISPRMNKGEPQPRRHLLGFSEQEPVQGVEPLQGSSQGPKEPQPSPTDQPSFSNLTAFPGGAKELLLRDLDQLFLSSDCRHFNRTESLRLADELSGWVQRHQRGRRKIPQRAQERQKSQPRKKSPPVKAVPIQPPGPPERDSVGQLQLYRHPDRSQPAFLDAIDRREDTFYVVSFRRGHLLLPAISHNKTSRPKMSLVMPAMAPNETLSGRGAPGDYEEMMQIECEVMDTRVIHIKTSTVPPSLRKQPSPTPGNATGGPLPVSAASQAHQASHQPLYLNHP
With B3 the “effect on reporter expression” value (GRP78 promoter; absence of TM) was “hardly affected”, the “effect on expression from mutant GRP78 promoter lacking all three ERSE sequences” value (GRP78 promoter) was “did not affect” and the “effect on reporter expression” value (GRP78 promoter; [1]) was “markedly suppressed”.

B4: ATF6(151-373): ATF6 amino acids 151st to 373rd, transcription-activating domain deletion mutant (protein, UniProt P18850 151-373, looked up, fragment)
chain: DKPVTGPRNKTENGLTPKKKIQVNSKPSIQPKPLLLPAAPKTQTNSSVPAKTIIIQTVPTLMPLAKQQPIISLQPAPTKGQTVLLSQPTVVQLQAPGVLPSAQPVLAVAGGVTQLPNHVVNVVPAPSANSPVNGKLSVTKPVLQSTMRNVGSDIAVLRRQQRMIKNRESACQSRKKKKEYMLGLEARLKAALSENEQLKKENGTLKRQLDEVVSENQRLKVPS
For B4, the “action on endogenous p50ATF6 in the nucleus” value (“action on endogenous p50ATF6” for short) (human GRP78 promoter) was “act dominant-negatively”.

B5: ATF6(402): HA-tagged ATF6 amino acids 1st to 402nd; retains the transmembrane domain (protein, UniProt P18850 1-402, looked up, fragment)
chain: MGEPAGVAGTMESPFSPGLFHRLDEDWDSALFAELGYFTDTDELQLEAANETYENNFDNLDFDLDLMPWESDIWDINNQICTVKDIKAEPQPLSPASSSYSVSSPRSVDSYSSTQHVPEELDLSSSSQMSPLSLYGENSNSLSSAEPLKEDKPVTGPRNKTENGLTPKKKIQVNSKPSIQPKPLLLPAAPKTQTNSSVPAKTIIIQTVPTLMPLAKQQPIISLQPAPTKGQTVLLSQPTVVQLQAPGVLPSAQPVLAVAGGVTQLPNHVVNVVPAPSANSPVNGKLSVTKPVLQSTMRNVGSDIAVLRRQQRMIKNRESACQSRKKKKEYMLGLEARLKAALSENEQLKKENGTLKRQLDEVVSENQRLKVPSPKRRVVCVMIVLAFIILNYGPMSMLEQDS
modifications: HA tag
notes: HA-tagged ATF6 amino acids 1st to 402nd; retains the transmembrane domain
In the case of B5, the “transcription of the luciferase gene from the GRP78 promoter having ERSE” value (human GRP78 promoter) is reported as “constitutively enhanced”.

B6: ATF6(151-330): ATF6 amino acids 151st to 330th, transcription-activating domain deletion mutant (protein, UniProt P18850 151-330, looked up, fragment)
chain: DKPVTGPRNKTENGLTPKKKIQVNSKPSIQPKPLLLPAAPKTQTNSSVPAKTIIIQTVPTLMPLAKQQPIISLQPAPTKGQTVLLSQPTVVQLQAPGVLPSAQPVLAVAGGVTQLPNHVVNVVPAPSANSPVNGKLSVTKPVLQSTMRNVGSDIAVLRRQQRMIKNRESACQSRKKKKEY
For B6, the “action on endogenous p50ATF6” value (human GRP78 promoter) was “act dominant-negatively”.

B7: ATF6(330): HA-tagged ATF6 amino acids 1st to 330th; lacks the leucine zipper region (protein, UniProt P18850 1-330, looked up, fragment)
chain: MGEPAGVAGTMESPFSPGLFHRLDEDWDSALFAELGYFTDTDELQLEAANETYENNFDNLDFDLDLMPWESDIWDINNQICTVKDIKAEPQPLSPASSSYSVSSPRSVDSYSSTQHVPEELDLSSSSQMSPLSLYGENSNSLSSAEPLKEDKPVTGPRNKTENGLTPKKKIQVNSKPSIQPKPLLLPAAPKTQTNSSVPAKTIIIQTVPTLMPLAKQQPIISLQPAPTKGQTVLLSQPTVVQLQAPGVLPSAQPVLAVAGGVTQLPNHVVNVVPAPSANSPVNGKLSVTKPVLQSTMRNVGSDIAVLRRQQRMIKNRESACQSRKKKKEY
modifications: HA tag
notes: HA-tagged ATF6 amino acids 1st to 330th; lacks the leucine zipper region
In the case of B7, the “activity compared with ATF6(373) or ATF(366)” value (human GRP78 promoter; nearly the same expression level) is reported as “markedly lower activity”.

B8: ATF6(151-366): ATF6 amino acids 151st to 366th, transcription-activating domain deletion mutant (protein, UniProt P18850 151-366, looked up, fragment)
chain: DKPVTGPRNKTENGLTPKKKIQVNSKPSIQPKPLLLPAAPKTQTNSSVPAKTIIIQTVPTLMPLAKQQPIISLQPAPTKGQTVLLSQPTVVQLQAPGVLPSAQPVLAVAGGVTQLPNHVVNVVPAPSANSPVNGKLSVTKPVLQSTMRNVGSDIAVLRRQQRMIKNRESACQSRKKKKEYMLGLEARLKAALSENEQLKKENGTLKRQLDEVVSEN
In the case of B8, the “action on endogenous p50ATF6” value (human GRP78 promoter) is reported as “act dominant-negatively”.
